From patent US20070128192A1 come the findings set out here.

One test concerns the target human IL-13 (human) (UniProt P35225). Description: cell-based or functional assay.
The target in test [1] is native (naturally occurring) human IL-13 released from HDLM-2 cells (human) (UniProt P35225). Description: cell-based or functional assay.
Chain of native (naturally occurring) human IL-13 released from HDLM-2 cells (human) (P35225 other isoform, or with tags, fused parts or gaps): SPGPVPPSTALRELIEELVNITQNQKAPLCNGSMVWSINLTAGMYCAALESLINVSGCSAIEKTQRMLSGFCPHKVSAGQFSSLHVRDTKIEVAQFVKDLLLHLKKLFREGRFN

Chain of human IL-13 (human) (P35225 other isoform, or with tags, fused parts or gaps): as above

In the test with human IL-13 (human), B-B13 (antibody) came in with an IC50, TF-1 proliferation assay of 1.02 nM and an IC50, eotaxin release from NHLF of 0.219 nM. Besides, the IC50, HDLM-2 cell proliferation assay in test [1] was determined as 16.7 nM.
Take JES10-5A2 (antibody): in the test with human IL-13 (human), the IC50, TF-1 proliferation assay was 0.471 nM and the IC50, eotaxin release from NHLF is 0.623 nM. Besides, the IC50, HDLM-2 cell proliferation assay in test [1] is 10.7 nM.
